{"source": "patent US20250152663A1", "about": "“COMPOSITION FOR PREVENTION OR TREATMENT OF DRY EYE DISEASE COMPRISING HAPLN1” (HAPLNSCIENCE INC., priority 2021, published 2025)", "key": {"rabbit dry eye model [1]": {"test_system": "rabbit dry eye model", "assay": "Tear film break up time (TFBUT), benzalkonium chloride-induced dry eye disease model", "assay_type": "in vivo, New Zealand white rabbits", "description": "(§1) One drop (0.05 ml) of 0.1% benzalkonium chloride (BAC) was administered to both eyes of rabbits twice a day (9:00 and 17:00) for 14 days, and then induction of dry eye was identified by examination of eyes, and the rabbits were classified into groups.\n(§2) The test substance was dropped into the groups of the rabbit model twice a day (8:30 and 16:30) (Day 15 to 30 (total of 16 days)).\n(§3) Anesthesia was induced by intramuscular injection of Xylazine and Ketamine, and then one drop of Alcaine Eye Drop was administered and tear and the eye drop remaining therein were removed by using Weck-cel cellulose spear. After putting STT paper on the lower eyelid, a length of a wet region for 5 minutes was measured (STT-2). In addition, stability of the tear film was tested by measuring tear film break up time (TFBUT, measurement of time taken for the tear film to break down). Furthermore, conditions of the cornea and fluorescent staining were identified by a slit test.\nIn this example, a method of measuring time until black spots appeared at fluorescent stained regions after applying one drop of sodium fluorescein to eyeballs. The black spots may appear within several seconds after blinking and occurs very quickly under the conditions of dry eye disease. That is, stability of the tear film was measured by measuring the tear film break up time (TFBUT, measurement of time taken for the tear film to break down)."}, "[2]": {"test_system": "MUC16 mRNA in human corneal epithelial cells", "assay": "RT-qPCR of mucin mRNA (MUC16) under high osmotic pressure", "assay_type": "cell-based", "details": "HCEC, 450 mOsM, 20 to 200 ng/ml, particularly 50 to 200 ng/ml, 24 hours; compared to the untreated group", "description": "First, the human corneal epithelial cells (HCECs, 5th passage) were seeded onto 6 wells at a density of […]. After 24 hours, the HCECs were pre-treated with a medium with different osmotic pressures (314 and 450 mOsM). After 48 hours of incubation, the cells were treated with the composition of the present disclosure having different concentrations of rhHAPLN1 (0, 5, 10, 20, 50, 100, and 200 ng/ml) and Cyclosporine A (0.1 μM), as a control drug, for 24 hours. Then, the cells were washed and sampled to perform RT-qPCR (FIG. 5A).\nTotal mRNA was purified from the HCECs by using a Qiagen kit. A cDNA was synthesized by using the iScript cDNA synthesis kit. Subsequently, RT-qPCR was performed and result data was expressed as relative expression levels (fold) (FIGS. 5B to 5C)."}, "rabbit dry eye model [3]": {"test_system": "rabbit dry eye model", "assay": "Tear volume assay (STT), benzalkonium chloride-induced dry eye disease model", "assay_type": "in vivo, New Zealand white rabbits", "description": "as §1, §2, §3"}, "[4]": {"test_system": "goblet cells present in the conjunctiva", "assay": "Goblet cells in conjunctiva (PAS staining), mouse dry eye model", "assay_type": "in vivo, C57BL/6", "details": "16th day", "description": "On the 16th days from drug treatment, eyes were enucleated and paraffin blocked, and tissue was stained by PAS staining on a prepared slide (FIG. 10A). PAS staining specifically stains goblet cells. Because there are many mucopolysaccharides and mucoproteins in the goblet cells, […] thereof is oxidized by a periodic acid to form an aldehyde, which reacts with a Schiff reagent to be stained in red-purple.\nIn this regard, the number of goblet cells present in the conjunctiva was measured and quantified (FIG. 10B). As a result, in the dry eye disease model, the number of damaged goblet cells decreased."}, "corneal epithelial cells": {"test_system": "corneal epithelial cells", "assay": "Detachment of corneal epithelial cells (H & E staining), mouse dry eye model", "assay_type": "in vivo, C57BL/6", "details": "after 16 days of drug treatment, regardless of concentration", "description": "On the 2nd day after 16 days of drug treatment, eyes were enucleated and paraffin blocked, and tissue was stained by hematoxylin and eosin (H & E) staining on a prepared slide (FIG. 9A). The number of detached corneal epithelial cells was measured and quantified (FIG. 9B)."}}, "data": [{"molecule": "hyaluronan and proteoglycan link protein 1 (HAPLN1) (protein, listed as Homo sapiens) MKSLLLLVLISICWADHLSDNYTLDHDRAIHIQAENGPHLLVEAEQAKVFSHRGGNVTLPCKFYRDPTAFGSGIHKIRIKWTKLTSDYLKEVDVFVSMGYHKKTYGGYQGRVFLKGGSDSDASLVITDLTLEDYGRYKCEVIEGLEDDTVVVALDLQGVVFPYFPRLGRYNLNFHEAQQACLDQDAVIASFDQLYDAWRGGLDWCNAGWLSDGSVQYPITKPREPCGGQNTVPGVRNYGFWDKDKSRYDVFCFTSNFNGRFYYLIHPTKLTYDEAVQACLNDGAQIAKVGQIFAAWKILGYDRCDAGWLADGSVRYPISRPRRRCSPTEAAVRFVGFPDKKHKLYGVYCFRAYN", "values": [{"measurement": "increase of TFBUT compared with Restasis", "setting": "rabbit dry eye model [1]; after 10 days, regardless of the concentration of HAPLN1", "value": "more than by Restasis"}, {"measurement": "tear film break up time (TFBUT)", "setting": "rabbit dry eye model [1]; eye drop b.i.d., dry eye model less than 10 seconds", "value": "continuously increased"}, {"measurement": "tear film break up time (TFBUT)", "setting": "rabbit dry eye model [1]; high concentration (50 μg/ml)", "value": "≥ 30", "unit": "s"}, {"measurement": "expression level of MUC16 (FIG. 5C)", "setting": "[2]", "value": "significantly increased"}, {"measurement": "tear volume compared with Restasis", "setting": "rabbit dry eye model [3]; after 10 days", "value": "increased the tear volume far more than Restasis"}, {"measurement": "tear volume", "setting": "rabbit dry eye model [3]; concentration-dependent, from the 5th day, more than Restasis", "value": "consistently increased"}, {"measurement": "number of goblet cells compared with normal Sham control", "setting": "[4]", "value": "equivalent to that of the normal Sham control"}, {"measurement": "number of goblet cells compared to the dry eye model", "setting": "[4]; regardless of the concentration", "value": "significantly increased"}, {"measurement": "number of damaged (detached) corneal epithelial cells", "setting": "corneal epithelial cells", "value": "decreased"}]}]}
